The values below come from patent publication US20060211075A1, “Enzyme sensors including environmentally sensitive or fluorescent labels and uses thereof” (The Albert Einstein College of Medicine of Yeshiva …, priority 2005, published 2006).

pKd: −log10 of the molar value.

The target in assay [1] is phosphorylated peptide 14, Ac-Glu-Glu-Glu-Ile-pTyr-Gly-Glu-Ile-Dab(dapoxyl)-Ala-amide. The assay is described as follows: Src phosphorylation of 8 µM peptide 14 at 12 µM Lck-SH2, fluorescence.
In assay [2] the target is phosphotyrosine version of peptide 13, Ac-Glu-Glu-Glu-Ile-pTyr-Dap(NBD)-Glu-Ile-Glu-Ala-amide. The assay is described as follows: Src phosphorylation of 16 µM peptide 13 at 26 µM Lck-SH2, fluorescence.
For assay [3], the target named is phosphorylated peptide 14, Ac-Glu-Glu-Glu-Ile-pTyr-Gly-Glu-Ile-Dab(dapoxyl)-Ala-amide. The assay is described as follows: Src phosphorylation of 8 µM peptide 14 at 4 µM Lck-SH2, fluorescence.
Assay [4] has as its target phosphotyrosine version of peptide 13, Ac-Glu-Glu-Glu-Ile-pTyr-Dap(NBD)-Glu-Ile-Glu-Ala-amide. The assay can be described thus: Src phosphorylation of 16 µM peptide 13 at 32 µM Lck-SH2, fluorescence.
Assay [5] has the same target. The assay can be described thus: Src phosphorylation of 16 µM peptide 13 at 20 µM Lck-SH2, fluorescence.
Assay [6] shares this target. The assay can be described thus: Src phosphorylation of 16 µM peptide 13 at 8 µM Lck-SH2, fluorescence.
The target in assay [7] is phosphorylated peptide 14, Ac-Glu-Glu-Glu-Ile-pTyr-Gly-Glu-Ile-Dab(dapoxyl)-Ala-amide. The assay can be described thus: Src phosphorylation of 8 µM peptide 14 at 0.2 µM Lck-SH2, fluorescence.
In assay [8] the target is phosphotyrosine version of peptide 13, Ac-Glu-Glu-Glu-Ile-pTyr-Dap(NBD)-Glu-Ile-Glu-Ala-amide. The assay can be described thus: fluorescence titration: Src-phosphorylated peptide 13 fixed at 16 µM, GST-Lck-SH2 varied, nonlinear regression.
Assay [9] deals with phosphorylated peptide 14, Ac-Glu-Glu-Glu-Ile-pTyr-Gly-Glu-Ile-Dab(dapoxyl)-Ala-amide. The assay is described as follows: Src phosphorylation of 8 µM peptide 14 at 16 µM Lck-SH2, fluorescence.
Assay [10] shares this target. The assay is described as follows: Src phosphorylation of 8 µM peptide 14 at 32 µM Lck-SH2, fluorescence.
The target is the same in assay [11]. The assay is described as follows: Src phosphorylation of 8 µM peptide 14 at 26 µM Lck-SH2, fluorescence.
The target in assay [12] is phosphotyrosine version of peptide 13, Ac-Glu-Glu-Glu-Ile-pTyr-Dap(NBD)-Glu-Ile-Glu-Ala-amide. The assay can be described thus: Src phosphorylation of 16 µM peptide 13 at 16 µM Lck-SH2, fluorescence.
Assay [13] shares this target. The assay is described as follows: Src phosphorylation of 16 µM peptide 13 at 12 µM Lck-SH2, fluorescence.
Assay [14] shares this target. The assay is described as follows: Src phosphorylation of 16 µM peptide 13 at 0 µM Lck-SH2 (baseline point of the titration).
Assay [15] has as its target phosphorylated peptide 14, Ac-Glu-Glu-Glu-Ile-pTyr-Gly-Glu-Ile-Dab(dapoxyl)-Ala-amide. The assay can be described thus: Src phosphorylation of 8 µM peptide 14 at 2 µM Lck-SH2, fluorescence.
The target of assay [16] is phosphotyrosine version of peptide 13, Ac-Glu-Glu-Glu-Ile-pTyr-Dap(NBD)-Glu-Ile-Glu-Ala-amide. The assay is described as follows: Src phosphorylation of 16 µM peptide 13 at 4 µM Lck-SH2, fluorescence.
The target of assay [17] is phosphorylated peptide 14, Ac-Glu-Glu-Glu-Ile-pTyr-Gly-Glu-Ile-Dab(dapoxyl)-Ala-amide. The assay can be described thus: Src phosphorylation of 8 µM peptide 14 at 8 µM Lck-SH2, fluorescence.
For assay [18] the target is unchanged. The assay is described as follows: Src phosphorylation of 8 µM peptide 14 at 20 µM Lck-SH2, fluorescence.

Regarding “GST-Lck-SH2 (from UniProt P06239 127-224)”, the Fluorescence Increase (fold change) in [1] was 5.34 fold; in assay [2], 1.61 fold; in assay [3], 2.32 fold; in assay [4], 1.59 fold; in assay [5], 1.56 fold; in [6], 1.33 fold. The Fluorescence Increase (fold change) in assay [7] amounted to 1.07 fold; in [9] it was 6.2 fold; in assay [10], 7.2 fold; in assay [11] it was 7.32 fold; in assay [12], 1.52 fold; in [13], 1.41 fold. In addition, the Fluorescence Increase (fold change) came to 1.07 fold in [14]; 1.7 fold in assay [15]; 1.24 fold in assay [16]; 4.31 fold in [17]; 6.85 fold in [18]. Also, the pKd – broadly, −log10 of the Kd, conventionally taken in molar units – in assay [8] is 5.68.
